Measured values published in the supplement of paper PMC10065799, “High-throughput profiling of sequence recognition by tyrosine kinases and SH2 domains using bacterial peptide display” (eLife, 2023).

These sequences were tested against FGFR3 (UniProt P22607) (assay: phosphorylation enrichment, bacterial display (enrichment ratio); higher = better substrate or ligand; peptides without Tyr show the background).
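Further: 11-residue human phosphosite peptides and single-mutation variants displayed on the E. coli surface, counted by deep sequencing, each peptide's frequency after selection divided by its frequency in the unselected input library; frequency after pTyr selection over input frequency; kinase dosed for 20-30% of maximal phosphorylation in three min.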

FGFR3, sequence (P22607 whole entry, looked up): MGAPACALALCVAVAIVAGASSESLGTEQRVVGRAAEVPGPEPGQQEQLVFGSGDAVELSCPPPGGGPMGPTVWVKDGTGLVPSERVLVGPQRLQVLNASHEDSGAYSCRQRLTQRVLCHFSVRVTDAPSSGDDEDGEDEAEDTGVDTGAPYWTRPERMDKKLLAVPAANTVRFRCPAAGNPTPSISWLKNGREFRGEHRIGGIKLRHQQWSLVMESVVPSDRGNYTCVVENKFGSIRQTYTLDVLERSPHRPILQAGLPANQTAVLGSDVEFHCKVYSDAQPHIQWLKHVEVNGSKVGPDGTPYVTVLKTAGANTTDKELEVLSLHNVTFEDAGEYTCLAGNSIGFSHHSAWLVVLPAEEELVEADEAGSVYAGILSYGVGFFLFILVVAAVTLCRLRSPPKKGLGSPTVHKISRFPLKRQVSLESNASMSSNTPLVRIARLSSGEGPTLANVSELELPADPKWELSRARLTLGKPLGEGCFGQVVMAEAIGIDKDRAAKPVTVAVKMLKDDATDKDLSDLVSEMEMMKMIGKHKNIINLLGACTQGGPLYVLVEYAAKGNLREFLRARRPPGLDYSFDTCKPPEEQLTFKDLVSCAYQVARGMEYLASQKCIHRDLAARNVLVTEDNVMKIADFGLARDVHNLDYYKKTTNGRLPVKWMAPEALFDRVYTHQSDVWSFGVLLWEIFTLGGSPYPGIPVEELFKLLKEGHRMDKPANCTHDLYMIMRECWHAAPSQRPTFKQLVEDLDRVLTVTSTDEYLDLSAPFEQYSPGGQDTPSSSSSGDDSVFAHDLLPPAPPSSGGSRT

Sequence	phosphorylation enrichment
SIVEDYRPPFY [ACVRL1_Y421_G416S]	0.743
TLKVGYKEKQR [EPHA3_Y659_T660K]	0.555
CTTIHYTFMCN [TP53_Y234_N235T_YF]	0.754
SRDTCYLVLAV [AMH_Y195_R194C]	1.12
QGRQTYLPQPA [DDR2_Y813]	0.485
DRFDNYIEKVR [DES_Y122_A120D]	0.604
GDYYCYLAEVA [YWHAG_Y133_R132C]	12.3
VVTFSYKPAGN [RBL2_Y544_P547A]	0.705
IMAYFYMCDRA [CASD1_Y382]	1.23
PTTKTYFLHFD [HBA1_Y43_P45L]	2.62
GLRYGYGGLGG [KRTAP20-2_Y15_V17G]	0.412
YGPPQYNMQYS [ERBB2IP_Y977_I979M]	0.448
DEFLEHRRIVG [FAM221A_Y20_Y20H_YF]	0.502
RRIEKYVDQGK [IRAK3_Y61_H57R]	0.416
LNLDTYQKRLR [PLA2G2D_Y126_R121L]	0.518
QFFQSYFNNNF [ZNF236_Y644]	0.841
CEHRGYLYLAI [TEK_Y897]	0.72

Sequence	phosphorylation enrichment
GRDQPYSGAGD [TYRO3_Y828]	0.357
LDYNEYVRDLN [HPRT1_Y198_F199V]	1.07
LGSNTYPFLLM [SAG_Y120_T125M]	1.86
YADGVYLALEE [DUOX2_Y70_Q71L]	1.18
CKPGFYNLKEK [LAMA1_Y490]	0.507
VEGISYDFIPT [CBS_Y308_G307S]	0.941
GLAELYEFQKK [CKAP5_Y1854_K1857Q_YF]	0.94
SWKRRYFLLRA [APBB1IP_Y331]	0.655
FSGKAYADEER [CRIM1_Y826]	0.566
QADVIYVNTQL [MERTK_Y872]	1.4
QEIATYRRLRE [KRT17_Y384_L388R]	0.933
TPGPNYRPGFN [USH2A_Y463_YF]	0.646
IVFTSYVLTIL [TAS2R16_Y239_F240V]	1.17
REVPVYTDSEP [FAM120B_Y368]	1.4
PADRAYSWFQH [NDST1_Y711_YF]	1.14
FRTGHYLCNAC [GATA1_Y223_D218Y_YF]	0.625

What follows are sequences tested against EPHB2 (UniProt P29323) in the same assay as above.
EPHB2, sequence (P29323 whole entry, looked up): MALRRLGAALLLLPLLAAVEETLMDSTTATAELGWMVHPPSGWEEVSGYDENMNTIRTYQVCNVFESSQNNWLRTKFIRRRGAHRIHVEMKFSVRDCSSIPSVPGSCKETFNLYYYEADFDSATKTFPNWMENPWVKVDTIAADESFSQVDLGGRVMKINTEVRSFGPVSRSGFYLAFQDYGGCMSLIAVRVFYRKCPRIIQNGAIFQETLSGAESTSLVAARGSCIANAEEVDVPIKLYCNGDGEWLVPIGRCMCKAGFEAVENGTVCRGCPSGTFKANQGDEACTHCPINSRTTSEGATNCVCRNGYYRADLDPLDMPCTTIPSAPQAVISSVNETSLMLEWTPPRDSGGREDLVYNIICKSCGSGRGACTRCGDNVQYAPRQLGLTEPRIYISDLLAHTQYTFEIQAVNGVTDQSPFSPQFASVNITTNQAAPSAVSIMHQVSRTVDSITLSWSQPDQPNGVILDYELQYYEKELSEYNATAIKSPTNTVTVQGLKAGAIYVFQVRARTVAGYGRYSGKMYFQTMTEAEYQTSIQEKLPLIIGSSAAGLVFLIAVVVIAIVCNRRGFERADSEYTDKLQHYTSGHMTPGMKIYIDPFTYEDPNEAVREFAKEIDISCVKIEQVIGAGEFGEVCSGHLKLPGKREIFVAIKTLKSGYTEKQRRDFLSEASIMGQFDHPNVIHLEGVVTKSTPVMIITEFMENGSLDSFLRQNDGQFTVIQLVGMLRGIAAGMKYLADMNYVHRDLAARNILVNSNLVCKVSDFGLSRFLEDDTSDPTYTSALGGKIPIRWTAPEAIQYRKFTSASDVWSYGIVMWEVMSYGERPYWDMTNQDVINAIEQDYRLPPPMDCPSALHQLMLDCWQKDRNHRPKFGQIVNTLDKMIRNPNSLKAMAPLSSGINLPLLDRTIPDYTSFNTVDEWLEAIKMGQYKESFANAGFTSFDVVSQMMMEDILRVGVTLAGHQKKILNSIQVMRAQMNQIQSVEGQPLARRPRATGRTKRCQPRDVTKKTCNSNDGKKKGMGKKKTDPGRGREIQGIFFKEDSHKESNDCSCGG

Sequence	phosphorylation enrichment
SIVEDYRPPFY [ACVRL1_Y421_G416S]	0.551
TLKVGYKEKQR [EPHA3_Y659_T660K]	0.366
CTTIHYTFMCN [TP53_Y234_N235T_YF]	0.553
SRDTCYLVLAV [AMH_Y195_R194C]	0.684
QGRQTYLPQPA [DDR2_Y813]	0.473
DRFDNYIEKVR [DES_Y122_A120D]	0.433
GDYYCYLAEVA [YWHAG_Y133_R132C]	14.7
VVTFSYKPAGN [RBL2_Y544_P547A]	0.424
IMAYFYMCDRA [CASD1_Y382]	0.641
PTTKTYFLHFD [HBA1_Y43_P45L]	1.14
GLRYGYGGLGG [KRTAP20-2_Y15_V17G]	0.31
YGPPQYNMQYS [ERBB2IP_Y977_I979M]	0.426
DEFLEHRRIVG [FAM221A_Y20_Y20H_YF]	0.494
RRIEKYVDQGK [IRAK3_Y61_H57R]	0.322
LNLDTYQKRLR [PLA2G2D_Y126_R121L]	0.42
QFFQSYFNNNF [ZNF236_Y644]	0.29
CEHRGYLYLAI [TEK_Y897]	0.53

Sequence	phosphorylation enrichment
GRDQPYSGAGD [TYRO3_Y828]	0.457
LDYNEYVRDLN [HPRT1_Y198_F199V]	0.993
LGSNTYPFLLM [SAG_Y120_T125M]	0.783
YADGVYLALEE [DUOX2_Y70_Q71L]	1.28
CKPGFYNLKEK [LAMA1_Y490]	0.469
VEGISYDFIPT [CBS_Y308_G307S]	0.568
GLAELYEFQKK [CKAP5_Y1854_K1857Q_YF]	0.564
SWKRRYFLLRA [APBB1IP_Y331]	0.58
FSGKAYADEER [CRIM1_Y826]	0.571
QADVIYVNTQL [MERTK_Y872]	0.962
QEIATYRRLRE [KRT17_Y384_L388R]	0.557
TPGPNYRPGFN [USH2A_Y463_YF]	0.436
IVFTSYVLTIL [TAS2R16_Y239_F240V]	0.794
REVPVYTDSEP [FAM120B_Y368]	0.725
PADRAYSWFQH [NDST1_Y711_YF]	0.67
FRTGHYLCNAC [GATA1_Y223_D218Y_YF]	0.484
